In patent US20260043004A1 (IMMPACT BIO, published 2026):

Molecular target: T1, anti-CD19/CD20 CAR having the amino acid sequence of SEQ ID NO: 2 (construct CC314)
T1 construct: Chimeric antigen receptor on the surface of transduced T cells: Leu16 scFv (VL-VH), (G4S)4, FMC63 scFv (VH-VL), IgG4 spacer, CD28 TM, 4-1BB, CD3 zeta; also called CD19/20 CAR; CD 19/20 CAR
Experiment: flow cytometry staining of T cells (donor 1917) transduced with CD19/20 CAR lentiviral vector

T1 sequence (chain, as listed by the source): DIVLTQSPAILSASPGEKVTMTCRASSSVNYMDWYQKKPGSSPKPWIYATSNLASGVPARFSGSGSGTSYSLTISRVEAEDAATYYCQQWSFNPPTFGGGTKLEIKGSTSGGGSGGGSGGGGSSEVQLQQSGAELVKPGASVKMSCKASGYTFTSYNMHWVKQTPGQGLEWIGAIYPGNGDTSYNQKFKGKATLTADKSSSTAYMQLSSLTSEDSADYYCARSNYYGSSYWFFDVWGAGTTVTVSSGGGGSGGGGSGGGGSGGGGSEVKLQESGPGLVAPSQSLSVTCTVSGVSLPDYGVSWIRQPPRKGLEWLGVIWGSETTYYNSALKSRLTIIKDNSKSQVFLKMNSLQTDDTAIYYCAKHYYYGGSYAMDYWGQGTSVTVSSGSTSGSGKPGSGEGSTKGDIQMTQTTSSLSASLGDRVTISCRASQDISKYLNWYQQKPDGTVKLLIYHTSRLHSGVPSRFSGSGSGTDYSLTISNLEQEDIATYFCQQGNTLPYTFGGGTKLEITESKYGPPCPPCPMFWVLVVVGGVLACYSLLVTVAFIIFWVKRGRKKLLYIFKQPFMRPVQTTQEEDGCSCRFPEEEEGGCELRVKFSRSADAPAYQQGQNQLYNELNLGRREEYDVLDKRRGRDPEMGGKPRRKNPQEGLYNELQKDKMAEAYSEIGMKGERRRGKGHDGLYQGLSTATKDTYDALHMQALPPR

B1: CD20 Protein-Biotin (Acros) (other, UniProt P11836 1-297, looked up)
chain: MTTPRNSVNGTFPAEPMKGPIAMQSGPKPLFRRMSSLVGPTQSFFMRESKTLGAVQIMNGLFHIALGGLLMIPAGIYAPICVTVWYPLWGGIMYIISGSLLAATEKNSRKCLVKGKMIMNSLSLFAAISGMILSIMDILNIKISHFLKMESLNFIRAHTPYINIYNCEPANPSEKNSPSTQYCYSIQSLFLGILSVMLIFAFFQELVIAGIVENEWKRTCSRPKSNIVLLSAEEKKEQTIEIKEEVVGLTETSSQPKNEEDIEIIPIQEEEEEETETNFPEPPQDQESSPIENDSSP
modifications: biotin (site not stated)
notes: Bought detection reagent
For B1, the “% Positive Cells” value was 68.1%.
